Experiment [1] has as its target TY-145 protease variant I150A, S173P, S175P, F180Y (Bacillus sp. TY-145). The experiment is described as follows: Ki fitted from Suc-AAPF-pNA activity; Model B detergent; ratio against m3 (without I150A).
Experiment [2] has as its target TY-145 protease variant S173P, S175P, F180Y, R224S (Bacillus sp. TY-145). The experiment is described as follows: Ki fitted from Suc-AAPF-pNA activity; Model B detergent; ratio against m3 (without R224S).
Experiment [3] has as its target TY-145 protease variant S27K, S171N, S173P, G174R, S175P, F180Y, G182A, L184F, Q198E, N199K, R224G, T297P (Bacillus sp. TY-145). Briefly: Ki fitted from Suc-AAPF-pNA activity; Model B detergent; ratio against m13 (without R224G).
Experiment [4] addresses TY-145 protease variant K146A, S173P, S175P, F180Y (Bacillus sp. TY-145). Briefly: Ki fitted from Suc-AAPF-pNA activity; Tris buffer pH 8; ratio against m3 (without K146A).
The target of experiment [5] is TY-145 protease variant K146F, S173P, S175P, F180Y (Bacillus sp. TY-145). The experiment is described as follows: Ki fitted from Suc-AAPF-pNA activity; Tris buffer pH 8; ratio against m3 (without K146F).
Experiment [6] addresses TY-145 protease variant S27K, I121V, S171N, S173P, G174R, S175P, F180Y, Q198E, R224S, T297P (Bacillus sp. TY-145). Briefly: Ki fitted from Suc-AAPF-pNA activity; Model B detergent; ratio against m6 (without R224S).
Experiment [7] addresses TY-145 protease variant K146W, S173P, S175P, F180Y (Bacillus sp. TY-145). The experiment is described as follows: Ki fitted from Suc-AAPF-pNA activity; Model B detergent; ratio against m3 (without K146W).
In experiment [8] the target is TY-145 protease variant K146T, S173P, S175P, F180Y (Bacillus sp. TY-145). The experiment is described as follows: Ki fitted from Suc-AAPF-pNA activity; Model B detergent; ratio against m3 (without K146T).
For experiment [9] the target is unchanged. Briefly: Ki fitted from Suc-AAPF-pNA activity; Tris buffer pH 8; ratio against m3 (without K146T).
Experiment [10] has as its target TY-145 protease variant S27K, I150N, S171N, S173P, G174R, S175P, F180Y, Q198E, T297P (Bacillus sp. TY-145). The experiment is described as follows: Ki fitted from Suc-AAPF-pNA activity; Model B detergent; ratio against m4 (without I150N).
Experiment [11] concerns the target TY-145 protease variant K146N, S173P, S175P, F180Y (Bacillus sp. TY-145). The experiment is described as follows: Ki fitted from Suc-AAPF-pNA activity; Model B detergent; ratio against m3 (without K146N).
The target of experiment [12] is TY-145 protease variant S114Q, S173P, S175P, F180Y (Bacillus sp. TY-145). Briefly: Ki fitted from Suc-AAPF-pNA activity at 8 inhibitor concentrations; Model B detergent; ratio against m3 (without S114Q).
Experiment [13] concerns the target TY-145 protease variant K146N, S173P, S175P, F180Y (Bacillus sp. TY-145). Briefly: Ki fitted from Suc-AAPF-pNA activity; Tris buffer pH 8; ratio against m3 (without K146N).
Experiment [14] addresses TY-145 protease (mature, SEQ ID NO: 3) (Bacillus sp. TY-145). The experiment is described as follows: Ki fitted from Suc-AAPF-pNA activity; Model B detergent; the reference itself (TY145 backbone).
Experiment [15] addresses TY-145 protease variant K146W, S173P, S175P, F180Y (Bacillus sp. TY-145). Briefly: Ki fitted from Suc-AAPF-pNA activity; Tris buffer pH 8; ratio against m3 (without K146W).
Experiment [16] concerns the target TY-145 protease variant S27K, S171N, S173P, G174R, S175P, F180Y, L184Y, Q198E, T297P (Bacillus sp. TY-145). Briefly: Ki fitted from Suc-AAPF-pNA activity; Model B detergent; ratio against m4 (without L184Y).
For experiment [17], the target named is TY-145 protease variant S27K, S171N, S173P, G174R, S175P, F180Y, L184W, Q198E, T297P (Bacillus sp. TY-145). Briefly: Ki fitted from Suc-AAPF-pNA activity; Model B detergent; ratio against m4 (without L184W).
The target of experiment [18] is TY-145 protease variant S173P, S175P, I178P, F180Y (Bacillus sp. TY-145). The experiment is described as follows: Ki fitted from Suc-AAPF-pNA activity; Model B detergent; ratio against m3 (without I178P).
The target of experiment [19] is TY-145 protease variant S27K, S173P, G174K, S175P, F180Y, L184Y, Q197K, Q198E, T297P (Bacillus sp. TY-145). Briefly: Ki fitted from Suc-AAPF-pNA activity; Model B detergent; ratio against m10 (without L184Y).
Experiment [20] concerns the target TY-145 protease variant S173P, S175P, F180Y, L184F (Bacillus sp. TY-145). The experiment is described as follows: Ki fitted from Suc-AAPF-pNA activity; Model B detergent; ratio against m3 (without L184F).
In experiment [21] the target is TY-145 protease variant S27K, S173P, G174K, S175P, F180Y, L184Y, Q198E, N199K, T297P (Bacillus sp. TY-145). The experiment is described as follows: Ki fitted from Suc-AAPF-pNA activity; Model B detergent; ratio against m8 (without L184Y).
Experiment [22] concerns the target TY-145 protease variant I150N, S173P, S175P, F180Y (Bacillus sp. TY-145). Briefly: Ki fitted from Suc-AAPF-pNA activity; Model B detergent; ratio against m3 (without I150N).
Experiment [23] addresses TY-145 protease variant S27K, I121V, S171N, S173P, G174R, S175P, F180Y, L184F, Q198E, T297P (Bacillus sp. TY-145). Briefly: Ki fitted from Suc-AAPF-pNA activity; Model B detergent; ratio against m6 (without L184F).
For experiment [24], the target named is TY-145 protease variant S27K, S171N, S173P, G174R, S175P, F180Y, Q198E, N199K, R224G, T297P (Bacillus sp. TY-145). Briefly: Ki fitted from Suc-AAPF-pNA activity; Model B detergent; ratio against m11 (without R224G).

Drawing on patent US20180355338A1, this text covers relative Ki mutation and IF (binding constant improvement factor, relative Ki) for 1 substance.

Regarding “Z-Gly-Ala-NHCH(CH2C6H4pOH)C(OH)(SO3Na)-H, wherein Z is benzyloxycarbonyl (peptide)”, the relative Ki mutation in experiment [1] is 0.5; in experiment [2], 0.5; in experiment [3], 0.69; in experiment [4], 0.29; in experiment [5], 0.19; in [6], 0.56. Besides, the relative Ki mutation in experiment [7] is 0.23; in experiment [8], 0.08; in [9] it was 0.06; in experiment [10], 0.24; in [11], 0.93; in experiment [12] it was 0.63. The relative Ki mutation in experiment [13] came out at 0.91; in experiment [15] it was 0.16; in experiment [16] it was 0.18; in [17], 0.57; in [18], 0.51; in experiment [19] it was 0.32. In addition, the relative Ki mutation in [20] is 0.31; in experiment [21], 0.21; in [22], 0.35; in [23] it was 0.3; in [24] it was 0.74. Besides, the IF (binding constant improvement factor, relative Ki) in [14] was found to be 1.
